Results reported in patent publication US20250197838A1, “UROKINASE-TYPE PLASMINOGEN ACTIVATOR RECEPTOR BINDING PEPTIDES AND METHODS OF USE” (The United States Government as represented by the …, priority 2022, published 2025).
Each block holds one molecule with its values, some of them ahead of it.

Legend:
FXII-uPAR binding = FXII-uPAR binding (Homo sapiens, UniProt Q03405); assay: Microscale thermophoresis of FXII-uPAR binding in absence or presence of FXII-derived inhibitory peptides; conditions: FIG. 2A
Chain of FXII-uPAR binding (Q03405 23-305 limits assumed): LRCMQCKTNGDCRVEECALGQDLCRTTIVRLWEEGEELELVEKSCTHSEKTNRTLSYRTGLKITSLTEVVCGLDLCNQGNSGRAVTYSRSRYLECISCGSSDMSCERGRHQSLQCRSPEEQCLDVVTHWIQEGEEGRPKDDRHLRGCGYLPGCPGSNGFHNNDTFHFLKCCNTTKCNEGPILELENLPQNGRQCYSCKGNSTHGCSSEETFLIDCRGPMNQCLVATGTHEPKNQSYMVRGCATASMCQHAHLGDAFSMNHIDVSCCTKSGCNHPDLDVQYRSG
Description: FIGS. 2A-D show the characterization of FXII-derived inhibitory peptides. […] FXII_fl: recombinant full length FXII: Combo: combination of IPP-DLA-LHV peptides, 10 μM each. * p=0.004 FXII_fl vs. Combo, 2-way ANOVA.
The results provide insight on the structure of the non-catalytic region of FXII. These advances have also provided the structural details required to develop peptide antagonists. To this end, 3 peptides containing FXII amino acid residues implicated in uPAR binding were synthesized and termed “IPP” (corresponding to SEQ ID NO: 1), “DLA” (corresponding to SEQ ID NO: 2), and “LHV” (corresponding to SEQ ID NO: 3). The kinetics of peptide interference with FXII-uPAR binding was screened which yielded nanomolar affinity for each (FIG. 2A).

uPAR [1] = target: T1, uPAR (Homo sapiens, UniProt Q03405); assay: Hydroxyl radical footprinting (HRF) with LC-MS: free FXII vs FXII in complex with uPAR; format: binding
Description: Briefly, free uPAR and human FXII protein samples were prepared with the final protein concentration of 2.5 μM and 3 μM, respectively (1:1.2 uPAR: FXII molar ratio). Free uPAR and FXII and FXII-uPAR complex were exposed to hydroxyl radicals for intervals of 0, 12, 20, and 40 milliseconds using the X-ray beam line. Next, the irradiated samples were reduced and alkylated with 10 mM and 25 mM of DTT and iodoacetamide, respectively. Subsequently, the samples were subjected to a trypsin and AspN digestion (1:10 enzyme to protein ratio) followed by liquid chromatography coupled with high-resolution mass spectrometry (LC-MS). The MS data were analyzed manually resulting in dose-response plots for each peptide. The HRF process introduces stable side chain oxidative modifications resulting in specific mass shifts, which were identified from the tandem mass spectrometry data. The selected ion chromatograms (SIC) were extracted and integrated for the un-oxidized and the oxidized forms of peptide ion (with particular m z). These peak area values were used to characterize reaction kinetics in the form of dose-response (DR) plots, which measure the loss of intact peptide as a function of the hydroxyl radical exposure. […] Differences in the rate of oxidation (called rate constant, RC) indicate the potential locations of the binding interface. MSI data for free and complex proteins were used to determine RC values for each peptide within the protein. Peptide location and the corresponding sequence are shown in columns 1 and 2, respectively. The third and fourth columns show the RC values for the free FXII protein and complex, respectively. The RC values were averaged from replicate experiments and the associated errors are shown next to each RC value.
Target sequence in this assay (Q03405 23-305 limits assumed): as above

uPAR [2] = target: T1, uPAR; assay: Microscale thermophoresis of uPAR binding on site-directed FXII mutants (Ala substitutions); conditions: FIG. 1D
Text: FIGS. 1A-D show the characterization of the FXII-uPAR binding interphase.
Each variant was characterized in several assays including microscale thermophoresis. […] These findings explain, at least in part, why the FXII-uPAR interaction is not a constitutive process in vivo.
Target sequence in this assay (Q03405 23-305): as the sequence (Q03405 23-305 limits assumed) above

[3] = target: T2, urokinase-type plasminogen activator receptor (uPAR; Plaur, Homo sapiens) (Homo sapiens, UniProt Q03405 23-305, limits assumed); assay: peptide interference with FXII-uPAR binding, microscale thermophoresis
T2 construct: also called human uPAR; human soluble uPAR
T2 sequence (Q03405 23-305 limits assumed): as above

Modification rate, KFXII, S^−1 FXII free (uPAR [1]; site P285, FXII position 272-291): 1.3 ± 0.061 S^−1
Modification rate, KCOM, S^−1 FXII complex (uPAR [1]; site P285, FXII position 272-291, complex with human uPAR): 0.87 ± 0.030 S^−1
Modification rate, KFXII, S^−1 FXII free (uPAR [1]; site P287, FXII position 272-291): 0.23 ± 0.021 S^−1
Modification rate, KCOM, S^−1 FXII complex (uPAR [1]; site P287, FXII position 272-291, complex with human uPAR): 0.11 ± 0.009 S^−1
Modification rate, KFXII, S^−1 FXII free (uPAR [1]; site Q281, FXII position 272-291): 0.97 ± 0.047 S^−1
Modification rate, KCOM, S^−1 FXII complex (uPAR [1]; site Q281, FXII position 272-291, complex with human uPAR): 0.53 ± 0.019 S^−1
Modification rate, KFXII, S^−1 FXII free (uPAR [1]; site V288, FXII position 272-291): 0.71 ± 0.04 S^−1
Modification rate, KCOM, S^−1 FXII complex (uPAR [1]; site V288, FXII position 272-291, complex with human uPAR): 0.46 ± 0.019 S^−1
Molecule: DLAQCQTPTQAAPPTPVSPR [listing 2 of 2 here]

affinity, peptide interference with FXII-uPAR binding (FXII-uPAR binding): nanomolar
Molecule: IPPWEAPK [listing 1 of 2 here]

Modification rate, KFXII, S^−1 FXII free (uPAR [1]; site H293, FXII position 292-305): 2.55 ± 0.30 S^−1
Modification rate, KCOM, S^−1 FXII complex (uPAR [1]; site H293, FXII position 292-305, complex with human uPAR): 1.82 ± 0.15 S^−1
Modification rate, KFXII, S^−1 FXII free (uPAR [1]; site K305, FXII position 292-305): 1.06 ± 0.063 S^−1
Modification rate, KCOM, S^−1 FXII complex (uPAR [1]; site K305, FXII position 292-305, complex with human uPAR): 0.58 ± 0.042 S^−1
Modification rate, KFXII, S^−1 FXII free (uPAR [1]; site L296, FXII position 292-305): 0.62 ± 0.054 S^−1
Modification rate, KCOM, S^−1 FXII complex (uPAR [1]; site L296, FXII position 292-305, complex with human uPAR): 0.29 ± 0.057 S^−1
Modification rate, KFXII, S^−1 FXII free (uPAR [1]; site V294, FXII position 292-305): 0.85 ± 0.093 S^−1
Modification rate, KCOM, S^−1 FXII complex (uPAR [1]; site V294, FXII position 292-305, complex with human uPAR): 0.79 ± 0.078 S^−1
Molecule: LHVPLMPAQPAPPK [listing 2 of 2 here]

binding result [3]: binds
Molecule: IPPWEAPK (Synthesized FXII-derived peptide) [IPP peptide (IPPWEAPK)]

Second part, the molecule before the results:

Molecule: DLAQCQTPTQAAPPTPVSPR [listing 1 of 2 here]
affinity, peptide interference with FXII-uPAR binding (FXII-uPAR binding): nanomolar

Molecule: IPPWEAPK [listing 2 of 2 here]
Modification rate, KFXII, S^−1 FXII free (uPAR [1]; site W4, FXII position 1-8): 3.08 ± 0.25 S^−1
Modification rate, KCOM, S^−1 FXII complex (uPAR [1]; site W4, FXII position 1-8, complex with human uPAR): 3.08 ± 0.13 S^−1

Molecule: LHVPLMPAQPAPPK [listing 1 of 2 here]
affinity, peptide interference with FXII-uPAR binding (FXII-uPAR binding): nanomolar

B1: W4A variant: zymogen FXII with single Ala substitution of W residue at position 4 (protein)
chain: IPPAEAPKEHKYKAEEHTVVLTVTGEPCHFPFQYHRQLYHKCTHKGRPGPQPWCATTPNFDQDQRWGYCLEPKKVKDHCSKHSPCQKGGTCVNMPSGPHCLCPQHLTGNHCQKEKCFEPQLLRFFHKNEIWYRTEQAAVARCQCKGPDAHCQRLASQACRTNPCLHGGRCLEVEGHRLCHCPVGYTGAFCDVDTKASCYDGRGLSYRGLARTTLSGAPCQPWASEATYRNVTAEQARNWGLGGHAFCRNPDNDIRPWCFVLNRDRLSWEYCDLAQCQTPTQAAPPTPVSPRLHVPLMPAQPAPPKPQPTTRTPPQSQTPGALPAKREQPPSLTRNGPLSCGQRLRKSLSSMTRVVGGLVALRGAHPYIAALYWGHSFCAGSLIAPCWVLTAAHCLQDRPAPEDLTVVLGQERRNHSCEPCQTLAVRSYRLHEAFSPVSYQHDLALLRLQEDADGSCALLSPYVQPVCLPSGAARPSETTLCQVAGWGHQFEGAEEYASFLQEAQVPFLSLERCSAPDVHGSSILPGMLCAGFLEGGTDACQGDSGGPLVCEDQAAERRLTLQGIISWGSGCGDRNKPGVYTDVAYYLAWIREHTVS
FXII-uPAR binding of FXII variant (uPAR [2]): significantly reduced

Molecule: DLAQCQTPTQAAPPTPVSPR (Synthesized FXII-derived peptide) [DLA peptide (DLAQCQTPTQAAPPTPVSPR)]
binding result [3]: binds

Molecule: LHVPLMPAQPAPPK (Synthesized FXII-derived peptide) [LHV peptide (LHVPLMPAQPAPPK)]
binding result [3]: binds
